From paper PMC11151058, “The Transpeptidase Sortase A Binds Nucleic Acids and Mediates Mammalian Cell Labeling”

Assays:
mgSrtA [1] = target: T1, mgSrtA (Staphylococcus aureus, UniProt Q2FV99 60-206, P94R;D124G;D160N;D165A;Y187L;E189R;K190E;K196T;F200L); test: band shift, SDS western blot; 20 uM oligo; Western-blot shift: 10 uM protein, 20 uM oligo, HBSS, 37 C, 30 min (Fig 3D 10 min); EMSA: HBSS, 37 C, 30 min, 6% PAGE; MST: 20 mM HEPES, 300 mM NaCl, pH 6.8, 0.1% Tween 20, 25 C; conditions: protein: recombinant; tags: N-terminal 6xHis (pET-28a); label: 5'Biotin
mgSrtA [2] = target: T1, mgSrtA; test: band shift, SDS western blot; 1 uM oligo; Western-blot shift: 10 uM protein, 20 uM oligo, HBSS, 37 C, 30 min (Fig 3D 10 min); EMSA: HBSS, 37 C, 30 min, 6% PAGE; MST: 20 mM HEPES, 300 mM NaCl, pH 6.8, 0.1% Tween 20, 25 C; conditions: protein: recombinant; tags: N-terminal 6xHis (pET-28a); label: 5'Biotin
mgSrtA-R197A = mgSrtA-R197A (Staphylococcus aureus, UniProt Q2FV99 60-206, P94R;D124G;D160N;D165A;Y187L;E189R;K190E;K196T;R197A;F200L); test: band shift, SDS western blot; Western-blot shift: 10 uM protein, 20 uM oligo, HBSS, 37 C, 30 min (Fig 3D 10 min); EMSA: HBSS, 37 C, 30 min, 6% PAGE; MST: 20 mM HEPES, 300 mM NaCl, pH 6.8, 0.1% Tween 20, 25 C; conditions: protein: recombinant; tags: N-terminal 6xHis (pET-28a); label: 5'Biotin, 3'FITC
mgSrtA-mono = mgSrtA-mono (Staphylococcus aureus, UniProt Q2FV99 60-206, P94R;D124G;N132A;K137A;Y143A;D160N;D165A;Y187L;E189R;K190E;K196T;F200L); test: as above; conditions: protein: recombinant; tags: N-terminal 6xHis (pET-28a); label: 5'Biotin, 3'FITC
WTSrtA = WTSrtA (Staphylococcus aureus, UniProt Q2FV99 60-206); test: as above; conditions: protein: recombinant; tags: N-terminal 6xHis (pET-28a); label: 5'Biotin, 3'FITC
mgSrtA-H120A = mgSrtA-H120A (Staphylococcus aureus, UniProt Q2FV99 60-206, P94R;H120A;D124G;D160N;D165A;Y187L;E189R;K190E;K196T;F200L); test: as above; conditions: protein: recombinant; tags: N-terminal 6xHis (pET-28a); label: 5'Biotin, 3'FITC
mgSrtA-C184A = mgSrtA-C184A (Staphylococcus aureus, UniProt Q2FV99 60-206, P94R;D124G;D160N;D165A;C184A;Y187L;E189R;K190E;K196T;F200L); test: as above; conditions: protein: recombinant; tags: N-terminal 6xHis (pET-28a); label: 5'Biotin, 3'FITC
mgSrtA-triple = mgSrtA-triple (Staphylococcus aureus, UniProt Q2FV99 60-206, P94R;H120A;D124G;D160N;D165A;C184A;Y187L;E189R;K190E;K196T;R197A;F200L); test: as above; conditions: protein: recombinant; tags: N-terminal 6xHis (pET-28a); label: 5'Biotin, 3'FITC
mgSrtA [3] = target: T1, mgSrtA; test: as above; conditions: protein: recombinant, tags: N-terminal 6xHis (pET-28a), label: 5'Biotin
5M SrtA = 5M SrtA (Staphylococcus aureus, UniProt Q2FV99 60-206, P94R;D160N;D165A;K190E;K196T); test: as above; conditions: protein: recombinant; tags: N-terminal 6xHis (pET-28a); label: 5'Biotin, 3'FITC
mgSrtA-L200F = mgSrtA-L200F (Staphylococcus aureus, UniProt Q2FV99 60-206, P94R;D124G;D160N;D165A;Y187L;E189R;K190E;K196T); test: as above; conditions: protein: recombinant; tags: N-terminal 6xHis (pET-28a); label: 5'Biotin, 3'FITC
mgSrtA [4] = target: T1, mgSrtA; test: band shift, SDS western blot; 50 uM oligo; Western-blot shift: 10 uM protein, 20 uM oligo, HBSS, 37 C, 30 min (Fig 3D 10 min); EMSA: HBSS, 37 C, 30 min, 6% PAGE; MST: 20 mM HEPES, 300 mM NaCl, pH 6.8, 0.1% Tween 20, 25 C; conditions: protein: recombinant; tags: N-terminal 6xHis (pET-28a); label: 5'Biotin

Question: Does GGGGGGGG (ssDNA) [8G] bind (mgSrtA [1])?
Answer: Result: binds

Question: Does GGGGCGGGGTGGGGC (ssDNA) [15G] bind (mgSrtA [2])?
Answer: Result: binds

Question: What does the source list for GGGG (ssDNA) [BF 4G]?
Answer: binding result (mgSrtA-R197A): binds; binding result (mgSrtA-mono): binds; binding result (WTSrtA): binds; binding result (mgSrtA-H120A): binds; binding result (mgSrtA-C184A): binds; binding result (mgSrtA-triple): binds; binding result (mgSrtA [3]; 3'FITC): binds; binding result (5M SrtA): binds; binding result (mgSrtA-L200F): binds

Question: Does GGGGCGGGGTGGGGCGGGGT (ssDNA) [20G] bind (mgSrtA [2])?
Answer: Result: binds

Question: Does GGGGGG (ssDNA) [6G] bind (mgSrtA [4])?
Answer: Result: binds

Question: Does GGGG (ssDNA) [4G (Fig S17)] bind (mgSrtA [3])?
Answer: Result: binds
